Experimental data taken from article PMC5827449, “Structural analysis of group II chitinase (ChtII) catalysis completes the puzzle of chitin hydrolysis in insects” (The Journal of Biological Chemistry, 2018).

Legend:
[1] = substrate: CC(=O)N[C@H]1[C@H](Oc2ccc3c(C)cc(=O)oc3c2)O[C@H](CO)[C@@H](O[C@@H]2O[C@H](CO)[C@@H](O)[C@H](O)[C@H]2NC(C)=O)[C@@H]1O; assay: fluorescence of released 4-methylumbelliferone; type: biochemical, Ostrinia furnacalis; settings: pH 6.0, 20 mM sodium phosphate, 303 K, 20 min, 30.0 °C
Text: fluorescence of released 4-methylumbelliferone on OfChi-h

[2] = substrate: CC(=O)N[C@H]1[C@H](Oc2ccc3c(C)cc(=O)oc3c2)O[C@H](CO)[C@@H](O[C@@H]2O[C@H](CO)[C@@H](O)[C@H](O)[C@H]2NC(C)=O)[C@@H]1O; assay: fluorescence of released 4-methylumbelliferone; type: biochemical, Ostrinia furnacalis; settings: pH 6.0, 20 mM sodium phosphate, 303 K, 20 min, 30.0 °C; remark: listed apart in the source
Text: fluorescence of released 4-methylumbelliferone on OfChtII-C2

Row | Protein | Km [1] [µM] | kcat [1] [s⁻¹] | kcat/Km [1] [M⁻¹ s⁻¹] | Km [2] [µM] | kcat [2] [s⁻¹] | kcat/Km [2] [M⁻¹ s⁻¹]
1 | OfChi-h (Ostrinia furnacalis) (protein) APPGKPSLGWGERTFAIVEVNQAATAYNQLVTKRDSADVSVTWNVWSGDPADKARVLLNDKEFWSGTGGAAGSASFKVKKGGRYQMVVELCNADGCSQSDATEIIVADTDGSHLPPLDYNMGEKNKPFKQTSGKVVGAYFVEWGVYPRKFPVDRVPIPNLTHLLYGFIPICGGDGINDSLKEIEGSFQALQRSCSGREDFKVSIHDPWAALQKPQKGLSSWNEPYKGNFGQLMMLKQAKPDLKILPSIGGWTLADPFFFFTDETKRRRFVASVKDFLQTWKFFDGVDIDWEFPGGKGANPNLGSPKDGEIYVLLMKELREMLNELSAETGRKYELTSAISAGWDKIQVVDYSAAQKYMDHIFFMSYDFKGAWSNDTLGHQASLYAPDWNEKETYTTDFGVQFLLAQGVSPKKIVVGVAMYGRGWTGVHGYKDNNPFTGNATGPVKGTWQDGVVDYREIATEIAQGKWEYHYDKVAQAPYVFRPATGDLITYDDARSTIEKGKYVRANKLGGLFAWEIDADNGDILNAMNMGLGNSA | 7.32 ± 0.35 | 3.1378 ± 0.0885 | 429000 |  |  | 
2 | OfChtII-C2 (Ostrinia furnacalis) (protein, single GH18 catalytic domain C2 (barrel 2059-2301 and 2377-2426); His-tag purified from Pichia pastoris GS115) ERFKVVCYYTNWAWYRPDNGKYTPGDINPELCTHIIYAFAVLDKEELVIKSHDIWLDVENKFYEKVTALKSHGVKVLLGLGGWDDSAGDKYSRLVNNVSARRKFVVHAVDFLEQYGFDGLDLDWEYPKCWQVECEKGPDSDKQGFADLVKELRKAFNRRGMLLSAAVSASKRVIDYAYNVPALSMNLDWISLMTYDYHGQWDKKTGHVAPMYVHDKDTDNTFNVNFTVNYWINKGADRKKLVVGVPFYGQSFSVVEGAGTGLGAPTYAGGEAGDETRARGFLSFYEICERVKVKGWKVHRDPGGRIGPYATHDDQWVSFDDDFMARHKAEYVRAMELGGSMAWSLDLDDFTGKYCGCGKAPLLTTINHVLRGKEAPPPCIL |  |  |  | 11.93 ± 0.50 | 0.2037 ± 0.0025 | 17000
